First the molecules themselves.
B1: TRIB1 (parent)
chain: EIGTSDQIVPEYQEDSDISSFFC
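Also: lentivirally expressed fusions sorted by FACS into six bins by GFP to DsRed ratio, PSI derived from sequencing read proportions per bin multiplied by bin number.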

The variants in the data set derive from B1. Kind of data set: protein stability index of a GFP-peptide fusion (GPS, HEK-293T) (PSI 1-6); higher = more stable. The settings on record: c terminus: native.
For the variant KIGTSDQIVPEYQEDSDISSFFC, the protein stability index is 1.98. With FIGTSDQIVPEYQEDSDISSFFC, the protein stability index was 2.15.

For the variant CIGTSDQIVPEYQEDSDISSFFC, the protein stability index worked out at 2.38.

In the case of MIGTSDQIVPEYQEDSDISSFFC, the protein stability index worked out at 2.41. Next, DIGTSDQIVPEYQEDSDISSFFC: 2.57.

As to LIGTSDQIVPEYQEDSDISSFFC, the protein stability index was found to be 2.21. Take VIGTSDQIVPEYQEDSDISSFFC: the protein stability index was found to be 2.74.

With WIGTSDQIVPEYQEDSDISSFFC, the protein stability index is 2.46. Regarding SIGTSDQIVPEYQEDSDISSFFC, the protein stability index turned out to be 2.42.

Regarding TIGTSDQIVPEYQEDSDISSFFC, the protein stability index was found to be 2.97. Next, AIGTSDQIVPEYQEDSDISSFFC: 2.7. Consider EIGKSDQIVPEYQEDSDISSFFC, for which the protein stability index came to 3.25. Consider EIGPSDQIVPEYQEDSDISSFFC, for which the protein stability index is 3.22.

As for EIGSSDQIVPEYQEDSDISSFFC, the protein stability index came out at 2.87. With EIGNSDQIVPEYQEDSDISSFFC the figure was 2.39; with EIGWSDQIVPEYQEDSDISSFFC, 2.73; with EIGTSDQIVPEYQEDSDISSMFC, 3.85.

For EIGTSDQIVPEYQEDSDISSAFC, the protein stability index stood at 3.98. With EIGTSDQIVPEYQEDSDISSVFC the figure was 3.89; with EIGTSDQIVPEYQEDSDISSSFC, 4.08.

EIGTSDQIVPEYQEDSDISSYFC: the protein stability index came to 2.64. Take EIGTSDQIVPEYQEDSDISSIFC: the protein stability index was found to be 3.59. Regarding EIGTSDQIVPEYQEDSDISSGFC, the protein stability index was 3.97. On to EIGTSDQIVPEYQEDSDISSCFC, for which the protein stability index came to 3.5.

As for EIGTSDQIVPEYQEKSDISSFFC, the protein stability index was 3.42. For the variant EIGTSDQIVPEYQEESDISSFFC, the protein stability index stood at 2.2. With EIGTSDQIVPEYQEWSDISSFFC the figure was 2.9.

EIGTSDQIVPEYQESSDISSFFC: the protein stability index was determined as 3.33.

As to EIGTSDQIVPEYQEYSDISSFFC, the protein stability index turned out to be 2.48. Next, EIGTSDQIVPEYQERSDISSFFC: 4.24; EIGTSDQIVPEYQETSDISSFFC: 3.4; EIGTSEQIVPEYQEDSDISSFFC: 4.77.

With EIGTSIQIVPEYQEDSDISSFFC, the protein stability index turned out to be 4.07. On to EIGTSCQIVPEYQEDSDISSFFC, for which the protein stability index was 4.7. Next, EIGTSPQIVPEYQEDSDISSFFC: 4.84; EIGTSVQIVPEYQEDSDISSFFC: 4.57. As for EIGTSTQIVPEYQEDSDISSFFC, the protein stability index turned out to be 5.07. As to EIGTSYQIVPEYQEDSDISSFFC, the protein stability index worked out at 4.65. Regarding EICTSDQIVPEYQEDSDISSFFC, the protein stability index was 2.38. Turning to EIHTSDQIVPEYQEDSDISSFFC, the protein stability index is 2.63. Regarding EIPTSDQIVPEYQEDSDISSFFC, the protein stability index worked out at 2.97. For EIATSDQIVPEYQEDSDISSFFC, the protein stability index amounted to 2.64.

For the variant EINTSDQIVPEYQEDSDISSFFC, the protein stability index was determined as 2.81. In the case of EIQTSDQIVPEYQEDSDISSFFC, the protein stability index amounted to 2.7.

Take EIWTSDQIVPEYQEDSDISSFFC: the protein stability index stood at 2.18. Next, EITTSDQIVPEYQEDSDISSFFC: 3.01; EIVTSDQIVPEYQEDSDISSFFC: 2.78. Next, EIDTSDQIVPEYQEDSDISSFFC: 2.55. With EIRTSDQIVPEYQEDSDISSFFC the figure was 2.31; with EISTSDQIVPEYQEDSDISSFFC, 2.57. As for EIGTSDQIVPEYQEDSDISEFFC, the protein stability index worked out at 2.37.

For EIGTSDQIVPEYQEDSDISQFFC, the protein stability index amounted to 3.21. Regarding EIGTSDQIVPEYQEDSDISNFFC, the protein stability index is 2.83.

EIGTSDQIVPEYQEDSDISPFFC: the protein stability index was 3.44.

As to EIGTSDQIVPEYQEDSDISLFFC, the protein stability index worked out at 1.79. As for EIGTSDQIVPEYQEDSDISAFFC, the protein stability index was determined as 3.2. In the case of EIGTSDQIVPEYQEDSDISVFFC, the protein stability index stood at 2.53. Turning to EIGTSDQIVPEYQEDSDISKFFC, the protein stability index worked out at 4.34. With EIGTSDQIVPEYQEDSDISYFFC, the protein stability index came out at 2.42.

With EIGTSDQIVPEYQEDSDISRFFC, the protein stability index was found to be 3.89. In the case of EIGTSDQIVPEYQEDSDISDFFC, the protein stability index was 2.3.

For EIGTSDQIVPEYQEDSDISSFEC, the protein stability index came out at 4.3. For EIGTSDQIVPEYQEDSDISSFSC, the protein stability index was determined as 4.48. With EIGTSDQIVPEYQEDSDISSFHC, the protein stability index is 4.3. On to EIGTSDQIVPEYQEDSDISSFKC, for which the protein stability index was 5.29. Regarding EIGTSDQIVPEYQEDSDISSFLC, the protein stability index was determined as 3.36. Next, EIGTSDQIVPEYQEDSDISSFYC: 2.03. Consider EIGTSDQIVPEYQEDSDISSFNC, for which the protein stability index was 4.54. Next, EIGTSDQIVPEYQEDSDISSFIC: 4.03. EIGTSDQIVPAYQEDSDISSFFC: the protein stability index was found to be 4.09. Regarding EIGTSDQIVPTYQEDSDISSFFC, the protein stability index came to 2.77.

For the variant EIGTSDQIVPMYQEDSDISSFFC, the protein stability index stood at 3.43. Take EIGTSDQIVPKYQEDSDISSFFC: the protein stability index is 4.4. Consider EIGTSDQIVPQYQEDSDISSFFC, for which the protein stability index was determined as 3.12. For EIGTSDQIVPRYQEDSDISSFFC, the protein stability index was found to be 3.68.

Regarding EIGTSDQIVPWYQEDSDISSFFC, the protein stability index was found to be 4.16. Consider EIGTSDQIQPEYQEDSDISSFFC, for which the protein stability index was found to be 5.78. Take EIGTSDQIEPEYQEDSDISSFFC: the protein stability index was 5.74. On to EIGTSDQIRPEYQEDSDISSFFC, for which the protein stability index was found to be 4.88.

For EIGTSDQIAPEYQEDSDISSFFC, the protein stability index is 5.16. In the case of EIGTSDQIKPEYQEDSDISSFFC, the protein stability index worked out at 5.49.

Take EIGTSDQINPEYQEDSDISSFFC: the protein stability index came out at 5.57. Next, EIGTSDQIMPEYQEDSDISSFFC: 5.12; EIGTSDQIWPEYQEDSDISSFFC: 4.34.

For EIGTSDQIFPEYQEDSDISSFFC, the protein stability index amounted to 4.94. EIGTSDQIVIEYQEDSDISSFFC: the protein stability index was found to be 4.09. As to EIGTSDQIVFEYQEDSDISSFFC, the protein stability index worked out at 3.77. EIGTSDQIVQEYQEDSDISSFFC: the protein stability index worked out at 4.9. With EIGTSDQIVNEYQEDSDISSFFC the figure was 5.23; with EIGTSDQIVSEYQEDSDISSFFC, 5.59. With EIGTSDQIVVEYQEDSDISSFFC, the protein stability index was 5.1. As for EIGTSDQIVMEYQEDSDISSFFC, the protein stability index was 5.19.

On to EIGTSDQIVKEYQEDSDISSFFC, for which the protein stability index was 5.56. Take EIGTSDQIVTEYQEDSDISSFFC: the protein stability index stood at 5.48.

For EIGTSDQIVDEYQEDSDISSFFC, the protein stability index is 5.63. Take EIGTSDQIVPEYQEDSDISSFFL: the protein stability index is 2.9. EIGTSDQIVPEYQEDSDISSFFQ: the protein stability index was 3.76.

Values taken from the supplement of paper PMC10567573.
